The values that follow come from publication PMC3540817, “Transfer of a Redox-Signal through the Cytosol by Redox-Dependent Microcompartmentation of Glycolytic Enzymes at Mitochondria and Actin Cytoskeleton” (Frontiers in Plant Science, 2012).

Series [1] concerns the molecule itself. Kind of series: far-Western, overlay or dot blot; 2 μg of each protein spotted on nitrocellulose, overlaid with 100 μg/ml aldolase with 0.1 mM GSNO, 5 mM GSSG, 1 mM diamide + 1 mM GSH or 0.5 mM H2O2 + 0.5 mM GSH, 1 h room temperature; glutaraldehyde cross-linking; anti-aldolase antibody.
The target of series [2] is T1, recombinant GAPDH GapC1 (At3g04120) (A. thaliana, UniProt P25858 1-338).
T1 construct: cytosolic NAD-dependent glyceraldehyde-3-phosphate dehydrogenase GapC1, A. thaliana, At3g04120; Redox reagents (diamide + GSH, GSSG, GSNO, H2O2 + GSH, DTT) were added to the mixtures; the redox state is told by the assay; source: recombinant, purified
In words: far-Western, overlay or dot blot; GapC and BSA spotted on nitrocellulose, overlaid with VDAC3 in liposomes, without DTT (oxidized GapC); anti-VDAC1 serum, ECL. The note with it: both partners purified.

T1 sequence (P25858 whole entry): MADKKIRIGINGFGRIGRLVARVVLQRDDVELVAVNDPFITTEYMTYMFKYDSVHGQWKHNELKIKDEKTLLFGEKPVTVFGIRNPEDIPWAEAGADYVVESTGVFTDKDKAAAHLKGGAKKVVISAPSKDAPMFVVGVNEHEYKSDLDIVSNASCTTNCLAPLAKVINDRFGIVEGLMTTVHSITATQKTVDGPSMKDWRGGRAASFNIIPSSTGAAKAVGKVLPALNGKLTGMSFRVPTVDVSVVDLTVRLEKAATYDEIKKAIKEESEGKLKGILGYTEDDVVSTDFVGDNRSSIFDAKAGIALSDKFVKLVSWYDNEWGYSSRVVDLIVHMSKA

B1: recombinant cytosolic fructose 1,6-bisphosphate aldolase (FBA6, At2g36460) (enzyme, A. thaliana, UniProt Q9SJQ9 1-358, looked up)
chain: MSSFTSKFADELIANAAYIGTPGKGILAADESTGTIGKRLASINVENVESNRRALRELLFTTPGALPCLSGVILFEETLYQKSSDGTPFVDMLKSAGVLPGIKVDKGTVELAGTNGETTTQGLDGLGDRCKKYYEAGARFAKWRAVLKIGVNEPSQLAIHENAYGLARYAVICQENGLVPIVEPEILVDGSHDIQKCAAVTERVLAACYKALSDHHVLLEGTLLKPNMVTPGSESAKVAPEVIAEHTVRALQRTVPAAVPAIVFLSGGQSEEEATRNLNAMNQLKTKKPWSLSFSFGRALQQSTLKTWGGKEENVKKAQEAFLVRCKANSEATLGAYKGDAKLGEGAAESLHVKDYKY
notes: cytosolic fructose 1,6-bisphosphate aldolase FBA6, A. thaliana, At2g36460; Redox reagents were added to the mixtures; no modified residues are named; the redox state is told by the assay; source: recombinant, purified
As for B1, the binding result in series [1] is recorded as “binds”.

B2: VDAC3 (At5g15090) reconstituted into liposomes (natural protein, A. thaliana, UniProt Q9SMX3 1-274, looked up)
chain: MVKGPGLYTEIGKKARDLLYRDYQGDQKFSVTTYSSTGVAITTTGTNKGSLFLGDVATQVKNNNFTADVKVSTDSSLLTTLTFDEPAPGLKVIVQAKLPDHKSGKAEVQYFHDYAGISTSVGFTATPIVNFSGVVGTNGLSLGTDVAYNTESGNFKHFNAGFNFTKDDLTASLILNDKGEKLNASYYQIVSPSTVVGAEISHNFTTKENAITVGTQHALDPLTTVKARVNNAGVANALIQHEWRPKSFFTVSGEVDSKAIDKSAKVGIALALKP
notes: voltage-dependent anion channel VDAC3, A. thaliana, At5g15090; also called VDAC3 in liposomes; porin; source: cell-free system (RTS 100 Wheat Germ CECF), separated from the reaction mix via reconstitution into liposomes
On to B2, for which, in series [2], the binding result was “binds”.
